Consider one substance from EP1324044A1.

The experiment has as its target Fas receptor on primary mouse thyroid follicular cells (TFC) (mouse) (UniProt P25446). The experiment can be described thus: cell-based or functional assay.
Sequence of UniProt P25446 (P25446 22-327): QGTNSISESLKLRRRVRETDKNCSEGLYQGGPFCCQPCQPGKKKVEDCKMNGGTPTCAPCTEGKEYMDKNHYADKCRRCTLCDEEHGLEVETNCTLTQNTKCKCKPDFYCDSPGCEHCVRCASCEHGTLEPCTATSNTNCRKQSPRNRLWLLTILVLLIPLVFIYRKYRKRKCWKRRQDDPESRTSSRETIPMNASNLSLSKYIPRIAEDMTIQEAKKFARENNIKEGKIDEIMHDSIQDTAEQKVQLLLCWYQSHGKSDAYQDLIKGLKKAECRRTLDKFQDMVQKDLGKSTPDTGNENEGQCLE

For the substance clone Jo2 anti-Fas antibody, the percentage of proliferation increase of anti-Fas versus control cultures ([3H] thymidine), 48h turned out to be 37%; the percentage of proliferation increase of anti-Fas versus control cultures ([3H] thymidine), 72h is 49%; the percentage of proliferation increase of anti-Fas versus control cultures ([3H] thymidine), 96h was found to be 61%; the proliferation of anti-Fas treated TFC ([3H] thymidine, mean cpm of six wells) was 392 to 1510 cpm.
